Experiments:
[1] = target: D3H44 Fab heavy chain L124R_S186K, C-terminal ABD2-His6 tag; test: LCCA set 9473 (co-expression; SPR read-out of light-chain tags; L1:L2 DNA 1:3, normalized to 1:1); competing light chain m16
[2] = target: D3H44 Fab heavy chain L124E_L143E_K145T, C-terminal ABD2-His6 tag; test: LCCA co-expression, SPR tag read-out; DNA 1:3 norm. to 1:1; competing light chain m13
[3] = target: D3H44 Fab heavy chain L124E_L143E_K145M, C-terminal ABD2-His6 tag; test: as above
[4] = target: D3H44 Fab heavy chain L124R_Q179K, C-terminal ABD2-His6 tag; test: as above
[5] = target: D3H44 Fab heavy chain L124R_S186R, C-terminal ABD2-His6 tag; test: LCCA set 9505 (co-expression; SPR read-out of light-chain tags; L1:L2 DNA 1:3, normalized to 1:1); competing light chain m15
[6] = target: D3H44 Fab heavy chain L124E_L143E_K145T, C-terminal ABD2-His6 tag; test: LCCA set 9298 (co-expression; SPR read-out of light-chain tags; L1:L2 DNA 1:3, normalized to 1:1); competing light chain m17
[7] = target: D3H44 Fab heavy chain L124E_L143D_K145M, C-terminal ABD2-His6 tag; test: LCCA set 9176 (co-expression; SPR read-out of light-chain tags; L1:L2 DNA 1:3, normalized to 1:1); competing light chain m15
[8] = target: D3H44 Fab heavy chain L124E_L143E_K145M, C-terminal ABD2-His6 tag; test: LCCA set 9259 (co-expression; SPR read-out of light-chain tags; L1:L2 DNA 1:3, normalized to 1:1); competing light chain m17
[9] = target: D3H44 Fab heavy chain L124E_L143D_K145T, C-terminal ABD2-His6 tag; test: LCCA set 9217 (co-expression; SPR read-out of light-chain tags; L1:L2 DNA 1:3, normalized to 1:1); competing light chain m16
[10] = target: D3H44 Fab heavy chain L124E_L143E_K145T, C-terminal ABD2-His6 tag; test: LCCA (co-expression, SPR read-out of light chain tags), L1:L2 DNA 1:3 normalised to 1:1; competitor m17
[11] = target: D3H44 Fab heavy chain L124R_S186K, C-terminal ABD2-His6 tag; test: as above
[12] = target: D3H44 Fab heavy chain L124R_S186R, C-terminal ABD2-His6 tag; test: as above
[13] = target: D3H44 Fab heavy chain L124E_L143D_K145T, C-terminal ABD2-His6 tag; test: LCCA set 9214 (co-expression; SPR read-out of light-chain tags; L1:L2 DNA 1:3, normalized to 1:1); competing light chain m15
[14] = target: D3H44 Fab heavy chain L124E_L143E_K145M, C-terminal ABD2-His6 tag; test: LCCA set 9257 (co-expression; SPR read-out of light-chain tags; L1:L2 DNA 1:3, normalized to 1:1); competing light chain m15
[15] = target: D3H44 Fab heavy chain L124E_L143E_K145M, C-terminal ABD2-His6 tag; test: LCCA set 9263 (co-expression; SPR read-out of light-chain tags; L1:L2 DNA 1:3, normalized to 1:1); competing light chain m14
[16] = target: D3H44 Fab heavy chain L124E_L143E_K145T, C-terminal ABD2-His6 tag; test: LCCA (co-expression, SPR read-out of light chain tags), L1:L2 DNA 1:3 normalised to 1:1; competitor m16
[17] = target: D3H44 Fab heavy chain L124E_L143D_K145T, C-terminal ABD2-His6 tag; test: as above
[18] = target: D3H44 Fab heavy chain L124R_Q179K, C-terminal ABD2-His6 tag; test: as above
[19] = target: D3H44 Fab heavy chain L124R_S186R, C-terminal ABD2-His6 tag; test: as above
[20] = target: D3H44 Fab heavy chain L124E_L143E_K145M, C-terminal ABD2-His6 tag; test: LCCA (co-expression, SPR read-out of light chain tags), L1:L2 DNA 1:3 normalised to 1:1; competitor m13
[21] = target: D3H44 Fab heavy chain L124E_L143D_K145T, C-terminal ABD2-His6 tag; test: as above
[22] = target: D3H44 Fab heavy chain L124R_Q179K, C-terminal ABD2-His6 tag; test: as above
[23] = target: D3H44 Fab heavy chain L124E_L143D_K145M, C-terminal ABD2-His6 tag; test: as above
[24] = target: D3H44 Fab heavy chain L124R_S186K, C-terminal ABD2-His6 tag; test: LCCA set 9451 (co-expression; SPR read-out of light-chain tags; L1:L2 DNA 1:3, normalized to 1:1); competing light chain m15
[25] = target: D3H44 Fab heavy chain L124R_Q179K, C-terminal ABD2-His6 tag; test: LCCA set 9384 (co-expression; SPR read-out of light-chain tags; L1:L2 DNA 1:3, normalized to 1:1); competing light chain m17
[26] = target: D3H44 Fab heavy chain L124E_L143E_K145T, C-terminal ABD2-His6 tag; test: LCCA co-expression, SPR tag read-out; DNA 1:3 norm. to 1:1; competing light chain m11
[27] = target: D3H44 Fab heavy chain L124R_Q179K, C-terminal ABD2-His6 tag; test: as above

H2L2:H2L1 normalized median ratio (H2L1 part) [1]: 7%
H1L1:H1L2 normalized median ratio (% (ratio normalized to 100)) [2]: 89
H1L1:H1L2 normalized median scalar value ln(r1/f1) [2]: 2.08
H1L1:H1L2 normalized median ratio (% (ratio normalized to 100)) [3]: 88
H1L1:H1L2 normalized median scalar value ln(r1/f1) [3]: 1.95
H2L2:H2L1 normalized median ratio (% (ratio normalized to 100)) [4]: 4
H2L2:H2L1 normalized median ratio (H2L1 part) [5]: 6%
H1L1:H1L2 normalized median ratio (H1L1 part) [6]: 88%
H1L1:H1L2 normalized median ratio (H1L1 part) [7]: 83%
H1L1:H1L2 normalized median scalar value ln(r1/f1) [7]: 1.62
H1L1:H1L2 normalized median ratio (H1L1 part) [8]: 84%
H1L1:H1L2 normalized median scalar value ln(r1/f1) [8]: 1.67
H1L1:H1L2 normalized median ratio (H1L1 part) [9]: 82%
H1L1:H1L2 normalized median scalar value ln(r1/f1) [9]: 1.52
H1L1:H1L2 normalized median ratio [10]: 87%
H1L1:H1L2 normalized median scalar value ln(r1/f1) [10]: 1.89
H2L2:H2L1 normalized median ratio [11]: 7%
H2L2:H2L1 normalized median ratio [12]: 6%
H1L1:H1L2 normalized median ratio (H1L1 part) [13]: 85%
H1L1:H1L2 normalized median scalar value ln(r1/f1) [13]: 1.71
H1L1:H1L2 normalized median ratio (H1L1 part) [14]: 84%
H1L1:H1L2 normalized median scalar value ln(r1/f1) [14]: 1.65
H1L1:H1L2 normalized median ratio (H1L1 part) [15]: 88%
H1L1:H1L2 normalized median scalar value ln(r1/f1) [15]: 1.95
H1L1:H1L2 normalized median ratio [16]: 89%
H1L1:H1L2 normalized median scalar value ln(r1/f1) [16]: 2.08
H1L1:H1L2 normalized median ratio [17]: 81%
H2L2:H2L1 normalized median ratio [18]: 4%
H2L2:H2L1 normalized median ratio [19]: 8%
H1L1:H1L2 normalized median ratio [20]: 85%
H1L1:H1L2 normalized median scalar value ln(r1/f1) [20]: 1.77
H1L1:H1L2 normalized median ratio [21]: 84%
H1L1:H1L2 normalized median scalar value ln(r1/f1) [21]: 1.66
H2L2:H2L1 normalized median ratio [22]: 4%
H1L1:H1L2 normalized median ratio [23]: 85%
H1L1:H1L2 normalized median scalar value ln(r1/f1) [23]: 1.76
H2L2:H2L1 normalized median ratio (H2L1 part) [24]: 7%
H2L2:H2L1 normalized median ratio (H2L1 part) [25]: 8%
H1L1:H1L2 normalized median ratio (% (ratio normalized to 100)) [26]: 89
H1L1:H1L2 normalized median scalar value ln(r1/f1) [26]: 2.12
H2L2:H2L1 normalized median ratio (% (ratio normalized to 100)) [27]: 4
Substance: D3H44 light chain Q124K_V133G_S176R_T178K, N-terminal HA or FLAG tag

— patent US11306156
